Results on two substances are retold here after article PMC2572221.

Assay [1] has as its target rat C3b (rat). The assay can be described thus: SPR; Biacore 3000; rat C3b (1000RU) covalently coupled to the chip through its internal thioester after deposition by a convertase on a nidus of human C3b (50RU); different concentrations of the sCrry proteins flowed over; KD from steady state analysis.
Assay [2] deals with rat C3b (rat).

“soluble recombinant form of rat Crry containing the four N-terminal SCRs (domain or fragment)” displayed a Kd with rat C3b (rat) [1] of 5.1 µM. rCrry-Ig (Fc fusion) came in with an IH50 of inhibition of AP-mediated haemolysis of guinea pig erythrocytes by rat serum, in terms of Crry molarity in the assay with rat C3b (rat) [2] of 168 nM.

The term Kd denotes a measure of binding affinity in units of concentration. Lower therefore signals a tighter complex.
